This note sets out measurements from PMC7367873, “Dissecting the sequence determinants for dephosphorylation by the catalytic subunits of phosphatases PP1 and PP2A” (Nature Communications, 2020).

For assay [1], the system named is GFP-14-3-3β and its binding proteins. Put plainly: GFP-14-3-3β co-IP with LC-MS/MS label-free quantification, untreated versus PP1c-treated. The arrangement: species or system human. The settings on record: PP1 vs untreated; label-free quantification. The procedure:
(§1) HeLa Kyoto cells expressing transiently transfected pEGFP(C1)-14-3-3β or pEGFP(C1) control plasmid, were incubated with 20 nM Calyculin A (# 9902 S, Cell Signaling Technology) for 12 min. Cells were washed twice on ice with cold PBS and after addition of 500 µL lysis buffer (100 mM NaCl, 10 mM Tris, 0.1% IGEPAL, 1 mM EDTA, 1 mM EGTA, 20 nM Calyculin A, 1x cOmplete Mini protease inhibitor cocktail (Sigma), 1 mM DTT, 1 mM MnCl2) cells were scraped from plates, lysed by 10 pushes through an injection needle (21 G, BD) and the insoluble fraction was pelleted by centrifugation (10 min, 10^4 rcf, 4 °C). Supernatants were then subjected to incubation with 1 µM recombinant phosphatase or buffer for 1 h at 30 °C. Next, we subjected samples to immunoprecipitation using α-GFP nanobodies covalently coupled to agarose beads (2 h, 4 °C, obtained from the EMBL PEPcore Core Facility). Beads were then washed three times with lysis buffer and samples were eluted in 1x LDS sample buffer (Thermo Fisher Scientific) by heating to 70 °C for 10 min.
(§2) The samples were then reduced with 25 mM dithiothreitol (10 min at 70 °C) and alkylated with 55 mM chloroacetamide (room temperature, 30 min, in the dark). Proteins were run on a precast 4–12% NuPAGE gel (ThermoFisher Scientific) for about 1 cm to concentrate the sample prior to in-gel tryptic digestion, which was performed according to the standard procedures. The peptides obtained were dried to completeness and resuspended in 12 µL of buffer A (0.1% FA), and 5 µL of sample were injected per MS measurement. The experiment was carried out in three independent replicates.
(§3) The samples were analyzed by LC-MS/MS on a Dionex Ultimate 3000 nano-HPLC coupled online to a Fusion Lumos Tribrid mass spectrometer (Thermo Fisher Scientific). Peptides were delivered to a trap column (75 µm × 2 cm, packed in-house with 5 µm C18 resin; Reprosil PUR AQ, Dr. Maisch) and washed using 0.1% FA at a flow rate of 5 µL/min for 10 min. Subsequently, peptides were transferred to an analytical column (75 µm × 45 cm, packed in-house with 3 µm C18 resin; Reprosil Gold) applying a flow rate of 300 nL/min and separated using a 60 min linear gradient from 4% to 32% LC solvent B (0.1% FA, 5% DMSO in ACN) in LC solvent A (0.1% FA in 5% DMSO). The eluate from the analytical column was sprayed via a stainless steel emitter (Thermo Fisher Scientific) at a source voltage of 2.1 kV into the mass spectrometer. The transfer capillary was heated to 275 °C. The Fusion Lumos was operated in positive ionization mode and data-dependent acquisition (DDA), automatically switching between MS1 and MS2 spectrum acquisition. Full scan MS1 spectra were recorded in the Orbitrap from 360 to 1300 m/z at a resolution of 60k (automatic gain control (AGC) target value of 4e5 charges, maximum injection time (maxIT) of 50 ms). Up to 20 peptide precursors were isolated (isolation window, 1.7 m/z; maximum injection time, 25 ms; and AGC value, 1e5), fragmented by high-energy collision-induced dissociation (HCD) using 30% normalized collision energy (NCE), and analyzed at a resolution of 15k in the Orbitrap. Precursor ions that were singly charged, unassigned, or with charge states >6+ were excluded. The dynamic exclusion duration of fragmented precursor ions was 20 s.
(§4) Peptide and protein identification and LFQ were performed using MaxQuant software (version 1.6.1.0)[64] by searching the data against all canonical protein sequences as annotated in the Swissprot reference database (human proteins only, 20193 entries, downloaded 22 March 2016, internally annotated with PFAM domains) using the embedded search engine Andromeda[65]. The MaxQuant search was performed using two variable modifications; oxidation of methionine and N-terminal protein acetylation. Carbamidomethylation on cysteines was specified as a fixed modification. Trypsin (Trypsin/P) was specified as the proteolytic enzyme with up to two allowed missed cleavage sites.

Another assay has as its system GFP-14-3-3β. Put plainly: GFP-14-3-3β co-IP with LC-MS/MS, untreated GFP-14-3-3β versus GFP control (14-3-3 interactome). Type of assay: binding, human. The conditions noted are these: untreated vs GFP; label-free quantification. On the procedure: as §1, §2, §3, §4

B1: RTCB (protein, UniProt Q9Y3I0 1-505, looked up)
RNA-splicing ligase RtcB …: MSRSYNDELQFLEKINKNCWRIKKGFVPNMQVEGVFYVNDALEKLMFEELRNACRGGGVGGFLPAMKQIGNVAALPGIVHRSIGLPDVHSGYGFAIGNMAAFDMNDPEAVVSPGGVGFDINCGVRLLRTNLDESDVQPVKEQLAQAMFDHIPVGVGSKGVIPMNAKDLEEALEMGVDWSLREGYAWAEDKEHCEEYGRMLQADPNKVSARAKKRGLPQLGTLGAGNHYAEIQVVDEIFNEYAAKKMGIDHKGQVCVMIHSGSRGLGHQVATDALVAMEKAMKRDKIIVNDRQLACARIASPEGQDYLKGMAAAGNYAWVNRSSMTFLTRQAFAKVFNTTPDDLDLHVIYDVSHNIAKVEQHVVDGKERTLLVHRKGSTRAFPPHHPLIAVDYQLTGQPVLIGGTMGTCSYVLTGTEQGMTETFGTTCHGAGRALSRAKSRRNLDFQDVLDKLADMGIAIRVASPKLVMEEAPESYKNVTDVVNTCHDAGISKKAIKLRPIAVIKG
For the molecule B1, in assay [1], the “Difference (log2), PP1 vs untreated” value is given as 1.104 log2. In addition, the “Difference (log2), untreated vs GFP” value with GFP-14-3-3β is -0.6754 log2.

B2: CEP131 (protein, UniProt Q9UPN4 1-1083, looked up)
Centrosomal protein of 131 kDa: MKGTRAIGSVPERSPAGVDLSLTGLPPPVSRRPGSAATTKPIVRSVSVVTGSEQKRKVLEATGPGGSQAINNLRRSNSTTQVSQPRSGSPRPTEPTDFLMLFEGSPSGKKRPASLSTAPSEKGATWNVLDDQPRGFTLPSNARSSSALDSPAGPRRKECTVALAPNFTANNRSNKGAVGNCVTTMVHNRYTPSERAPPLKSSNQTAPSLNNIIKAATCEGSESSGFGKLPKNVSSATHSARNNTGGSTGLPRRKEVTEEEAERFIHQVNQATVTIQRWYRHQVQRRGAGAARLEHLLQAKREEQRQRSGEGTLLDLHQQKEAARRKAREEKARQARRAAIQELQQKRALRAQKASTAERGPPENPRETRVPGMRQPAQELSPTPGGTAHQALKANNTGGGLPAAGPGDRCLPTSDSSPEPQQPPEDRTQDVLAQDAAGDNLEMMAPSRGSAKSRGPLEELLHTLQLLEKEPDVLPRPRTHHRGRYAWASEVTTEDDASSLTADNLEKFGKLSAFPEPPEDGTLLSEAKLQSIMSFLDEMEKSGQDQLDSQQEGWVPEAGPGPLELGSEVSTSVMRLKLEVEEKKQAMLLLQRALAQQRDLTARRVKETEKALSRQLQRQREHYEATIQRHLAFIDQLIEDKKVLSEKCEAVVAELKQEDQRCTERVAQAQAQHELEIKKLKELMSATEKARREKWISEKTKKIKEVTVRGLEPEIQKLIARHKQEVRRLKSLHEAELLQSDERASQRCLRQAEELREQLEREKEALGQQERERARQRFQQHLEQEQWALQQQRQRLYSEVAEERERLGQQAARQRAELEELRQQLEESSSALTRALRAEFEKGREEQERRHQMELNTLKQQLELERQAWEAGRTRKEEAWLLNREQELREEIRKGRDKEIELVIHRLEADMALAKEESEKAAESRIKRLRDKYEAELSELEQSERKLQERCSELKGQLGEAEGENLRLQGLVRQKERALEDAQAVNEQLSSERSNLAQVIRQEFEDRLAASEEETRQAKAELATLQARQQLELEEVHRRVKTALARKEEAVSSLRTQHEAAVKRADHLEELLEQHRRPTPSTK
Take B2: the “Difference (log2), PP1 vs untreated” value in assay [1] is given as 1.183 log2. For the same molecule, the “Difference (log2), untreated vs GFP” value with GFP-14-3-3β is 0.2298 log2.

B3: ABCD3 (protein, UniProt P28288 1-659, looked up)
ATP-binding cassette …: MAAFSKYLTARNSSLAGAAFLLLCLLHKRRRALGLHGKKSGKPPLQNNEKEGKKERAVVDKVFFSRLIQILKIMVPRTFCKETGYLVLIAVMLVSRTYCDVWMIQNGTLIESGIIGRSRKDFKRYLLNFIAAMPLISLVNNFLKYGLNELKLCFRVRLTKYLYEEYLQAFTYYKMGNLDNRIANPDQLLTQDVEKFCNSVVDLYSNLSKPFLDIVLYIFKLTSAIGAQGPASMMAYLVVSGLFLTRLRRPIGKMTITEQKYEGEYRYVNSRLITNSEEIAFYNGNKREKQTVHSVFRKLVEHLHNFILFRFSMGFIDSIIAKYLATVVGYLVVSRPFLDLSHPRHLKSTHSELLEDYYQSGRMLLRMSQALGRIVLAGREMTRLAGFTARITELMQVLKDLNHGKYERTMVSQQEKGIEGVQVIPLIPGAGEIIIADNIIKFDHVPLATPNGDVLIRDLNFEVRSGANVLICGPNGCGKSSLFRVLGELWPLFGGRLTKPERGKLFYVPQRPYMTLGTLRDQVIYPDGREDQKRKGISDLVLKEYLDNVQLGHILEREGGWDSVQDWMDVLSGGEKQRMAMARLFYHKPQFAILDECTSAVSVDVEGYIYSHCRKVGITLFTVSHRKSLWKHHEYYLHMDGRGNYEFKQITEDTVEFGS
Regarding B3, the “Difference (log2), PP1 vs untreated” value in assay [1] turned out to be 1.116 log2. Besides, the “Difference (log2), untreated vs GFP” value in the assay on GFP-14-3-3β was -0.7267 log2.

B4: CD55 (protein, UniProt P08174 35-353, looked up)
Complement decay-accelerating …: DCGLPPDVPNAQPALEGRTSFPEDTVITYKCEESFVKIPGEKDSVICLKGSQWSDIEEFCNRSCEVPTRLNSASLKQPYITQNYFPVGTVVEYECRPGYRREPSLSPKLTCLQNLKWSTAVEFCKKKSCPNPGEIRNGQIDVPGGILFGATISFSCNTGYKLFGSTSSFCLISGSSVQWSDPLPECREIYCPAPPQIDNGIIQGERDHYGYRQSVTYACNKGFTMIGEHSIYCTVNNDEGEWSGPPPECRGKSLTSKVPPTVQKPTTVNVPTTEVSPTSQKTTTKTTTPNAQATRSTPVSRTTKHFHETTPNKGSGTTS
Regarding B4, the “Difference (log2), PP1 vs untreated” value in assay [1] stood at 1.129 log2. In addition, the “Difference (log2), untreated vs GFP” value with GFP-14-3-3β is given as -1.764 log2.

B5: ATP2A2 (protein, UniProt P16615 1-1042, looked up)
Sarcoplasmic/endoplasmic …: MENAHTKTVEEVLGHFGVNESTGLSLEQVKKLKERWGSNELPAEEGKTLLELVIEQFEDLLVRILLLAACISFVLAWFEEGEETITAFVEPFVILLILVANAIVGVWQERNAENAIEALKEYEPEMGKVYRQDRKSVQRIKAKDIVPGDIVEIAVGDKVPADIRLTSIKSTTLRVDQSILTGESVSVIKHTDPVPDPRAVNQDKKNMLFSGTNIAAGKAMGVVVATGVNTEIGKIRDEMVATEQERTPLQQKLDEFGEQLSKVISLICIAVWIINIGHFNDPVHGGSWIRGAIYYFKIAVALAVAAIPEGLPAVITTCLALGTRRMAKKNAIVRSLPSVETLGCTSVICSDKTGTLTTNQMSVCRMFILDRVEGDTCSLNEFTITGSTYAPIGEVHKDDKPVNCHQYDGLVELATICALCNDSALDYNEAKGVYEKVGEATETALTCLVEKMNVFDTELKGLSKIERANACNSVIKQLMKKEFTLEFSRDRKSMSVYCTPNKPSRTSMSKMFVKGAPEGVIDRCTHIRVGSTKVPMTSGVKQKIMSVIREWGSGSDTLRCLALATHDNPLRREEMHLEDSANFIKYETNLTFVGCVGMLDPPRIEVASSVKLCRQAGIRVIMITGDNKGTAVAICRRIGIFGQDEDVTSKAFTGREFDELNPSAQRDACLNARCFARVEPSHKSKIVEFLQSFDEITAMTGDGVNDAPALKKAEIGIAMGSGTAVAKTASEMVLADDNFSTIVAAVEEGRAIYNNMKQFIRYLISSNVGEVVCIFLTAALGFPEALIPVQLLWVNLVTDGLPATALGFNPPDLDIMNKPPRNPKEPLISGWLFFRYLAIGCYVGAATVGAAAWWFIAADGGPRVSFYQLSHFLQCKEDNPDFEGVDCAIFESPYPMTMALSVLVTIEMCNALNSLSENQSLLRMPPWENIWLVGSICLSMSLHFLILYVEPLPLIFQITPLNVTQWLMVLKISLPVILMDETLKFVARNYLEPGKECVQPATKSCSFSACTDGISWPFVLLIMPLVIWVYSTDTNFSDMFWS
B5: the “Difference (log2), PP1 vs untreated” value in assay [1] was 1.1435 log2. Moreover, the “Difference (log2), untreated vs GFP” value in the assay with GFP-14-3-3β is recorded as -0.4794 log2.
